The values below come from publication PMC5010959.

Values joined by “and” are separate entries in the source; they are usually repeats but may differ in a detail not shown here. Equal entries are not always repeated.

Data set [1] concerns the target T1, BoNT/A light chain (LCA) (Clostridium botulinum type A, UniProt P0DPI1 2-448).
Data set [2] addresses T1, BoNT/A light chain (LCA). Briefly: SPR.

T1 sequence (P0DPI1 2-448): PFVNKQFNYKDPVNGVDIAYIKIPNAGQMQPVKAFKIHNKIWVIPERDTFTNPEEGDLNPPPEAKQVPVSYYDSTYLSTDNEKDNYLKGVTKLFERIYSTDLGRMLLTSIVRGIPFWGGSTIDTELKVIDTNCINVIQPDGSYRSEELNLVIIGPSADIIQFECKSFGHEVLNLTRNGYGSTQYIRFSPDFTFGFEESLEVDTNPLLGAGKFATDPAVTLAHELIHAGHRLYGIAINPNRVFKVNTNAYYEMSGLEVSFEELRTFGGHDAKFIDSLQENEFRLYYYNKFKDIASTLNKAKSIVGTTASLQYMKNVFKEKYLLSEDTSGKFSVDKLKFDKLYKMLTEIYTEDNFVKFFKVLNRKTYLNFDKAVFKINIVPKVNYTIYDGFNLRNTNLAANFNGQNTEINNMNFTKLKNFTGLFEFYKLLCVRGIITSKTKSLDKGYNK

B1: TW3 2'-F modified (XNA)
RNA: GGGUACCCACUCAGGUACGUGGGAAUUGAGCGGGUCACACUAUAAGCACGAGCCUUAGACAGCUUUCUAGAAUUAAGCUUAGGC
modifications: 2'-fluoro pyrimidines (C and U)
For the molecule B1, in data set [1], half-maximal inhibition (IC50) was put at 727 ± 12 nM; the Ki (as a rule, a dissociation constant, usually derived from enzyme kinetics or from competition with a known ligand) was 463 nM and 849 nM. Besides, in data set [2], binding was characterised by a dissociation constant (Kd) of 27.9 ± 4.3 nM.

B2: TW3 unmodified (structured_RNA)
RNA: GGGUACCCACUCAGGUACGUGGGAAUUGAGCGGGUCACACUAUAAGCACGAGCCUUAGACAGCUUUCUAGAAUUAAGCUUAGGC
Turning to B2, in data set [2], the affinity, expressed as Kd, was 59.1 ± 7.3 nM.

B3: TW1 2'-F modified (XNA)
RNA: GGGUACCCACUCAGGUACGAUUGGUGCGAUAAACUAGACUCGUCAUGCGCAGUCUCCUACAGCUUUCUAGAAUUAAGCUUAGGC
modifications: 2'-fluoro pyrimidines (C and U)
As to B3, in data set [1], the IC50 (usually the concentration that gives 50% inhibition) came out at 639 ± 13 nM; the Ki is 433 nM and 720 nM. In data set [2], the Kd (usually the equilibrium constant for the complex coming apart) was 31.4 ± 4.4 nM.

B4: TW1 unmodified (structured_RNA)
RNA: GGGUACCCACUCAGGUACGAUUGGUGCGAUAAACUAGACUCGUCAUGCGCAGUCUCCUACAGCUUUCUAGAAUUAAGCUUAGGC
In the case of B4, binding in data set [2] was characterised by a dissociation constant (Kd) of 109 ± 9.9 nM.
